Article PMC5228624

Biological target: T1, arginine vasopressin (AVP) (UniProt P01185 20-28)
T1 chain: CYFQNCPRG
Test: bead capture, thermal elution, MALDI-TOF MS

Binder: ACCTGGGGGAGTATTGCGGAGGAAGGTAAAAAAA (ssDNA) [ATP-specific aptamer (control)]
- binding result: no binding
